Target: T1, CheY complexed with the unlinked CheA P2 domain (E. coli, UniProt P0AE67 1-129; P07363 156-229)
T1 sequence (looked up) 1: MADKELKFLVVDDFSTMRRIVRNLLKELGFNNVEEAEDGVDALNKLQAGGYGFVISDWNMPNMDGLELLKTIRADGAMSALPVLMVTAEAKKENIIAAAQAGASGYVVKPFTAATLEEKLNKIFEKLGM
T1 sequence (looked up) 2: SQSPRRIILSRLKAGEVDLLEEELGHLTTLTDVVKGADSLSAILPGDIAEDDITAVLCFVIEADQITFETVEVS
Assay: NMR titration

Kd: ~4.5 mM
B1: CheA P1 domain (residues 1-134) (domain or fragment, E. coli, UniProt P07363 1-134, looked up)
chain: MSMDISDFYQTFFDEADELLADMEQHLLVLQPEAPDAEQLNAIFRAAHSIKGGAGTFGFSVLQETTHLMENLLDEARRGEMQLNTDIINLFLETKDIMQEQLDAYKQSQEPDAASFDYICQALRQLALEAKGET

From PMC3365488 (Biochemistry, 2012)
